The subject of data set [1] is CCCc1coc2cc(NC(=O)C(N)CCCCN)c(OC)cc2c1=O. The data set can be described thus: (§1) Substrate activity at trypsin (unknown origin) by fluorescent biochemical assay. The conditions noted are these: Homo sapiens. Type of data set: protein assay.
Data set [2] has as its system CCCc1coc2cc(NC(=O)C(N)CCCCN)ccc2c1=O. The description is as §1. Type of data set: protein assay. The settings on record: Homo sapiens.

For orientation: Km means the concentration of substrate that gives half-maximal velocity. For “Trypsin (Homo sapiens) (from UniProt P07477+P07478+P35030)”, the Km in data set [1] came to 30.3 µM; in data set [2], 47.6 µM.

These data come from ChEMBL document CHEMBL4706636, “Determining Essential Requirements for Fluorophore Selection in Various Fluorescence Applications Taking Advantage of Diverse Structure-Fluorescence Information of Chromone Derivatives” (J Med Chem, 2021).
